According to patent US20230365709A1:

Target: recombinant human CD16A (48R/158F) expressed on the surface of CHO cells (human) (UniProt P08637)
Assay: flow cytometry, CHO-huCD16A cells, apparent KD; SD 62.5

B1: 2scDb-AFc-3 (protein)
chain 1: EVQLQQSGPELVKPGASVKMSCKASGYTFTDYVINWGKQRSGQGLEWIGEIYPGSGTNYYNEKFKAKATLTADKSSNIAYMQLSSLTSEDSAVYFCARRGRYGLYAMDYWGQGTSVTVSSGGSGGSGGSDIVMTQSPATLSLSPGERATLSCRSSKSLQNVNGNTYLYWFQQKPGQSPQLLIYRMSNLNSGVPDRFSGSGSGTEFTLTISSLEPEDFAVYYCMQHLEYPITFGAGTKLEIKGGSGGSGGSGGSGGSGGSGGSEVQLVESGGGLVKPGGSLKLSCAASGYTFTSYVMHWVRQAPGKGLEWIGYINPYNDGTKYNEKFQGRVTISSDKSISTAYMELSSLRSEDTAMYYCARGTYYYGTRVFDYWGQGTLVTVSSGGSGGSGGSDIQMTQTTSSLSASLGDRVTISCRASQDISNYLNWYQQKPDGTVKLLIYYTSRLHSGVPSRFSGSGSGTDYSLTINNLEQEDIATYFCQQGNTRPWTFGGGTKLEIKDKTHTCPPCPAPEFEGGPSVFLFPPKPKDTLMISRTPEVTCVVVAVSHEDPEVKFNWYVDGVEVHNAKTKPREEQYGSTYRVVSVLTVLHQDWLNGKEYKCKVSNKALPAPIEKTISKAKGQPREPQVYTLPPSREEMTKNQVSLWCLVKGFYPSDIAVEWESNGQPENNYKTTPPVLDSDGSFFLYSKLTVDKSRWQQGNVFSCSVMHEALHNHYTQKSLSLSPG
chain 2: EVQLVQSGAEVKKPGASVKVSCKASGYTFTNYYMQWVRQAPGQCLEWMGIINPSGGVTSYAQKFQGRVTMTRDTSTSTVYMELSSLRSEDTAVYYCARGSAYYYDFADYWGQGTLVTVSSGGSGGSGGSDIVMTQSPATLSLSPGERATLSCRSSKSLQNVNGNTYLYWFQQKPGQSPQLLIYRMSNLNSGVPDRFSGSGSGTEFTLTISSLEPEDFAVYYCMQHLEYPITFGAGTKLEIKGGSGGSGGSGGSGGSGGSGGSEVQLVESGGGLVKPGGSLKLSCAASGYTFTSYVMHWVRQAPGKGLEWIGYINPYNDGTKYNEKFQGRVTISSDKSISTAYMELSSLRSEDTAMYYCARGTYYYGTRVFDYWGQGTLVTVSSGGSGGSGGSSYELTQPLSVSVALGQTARITCGGNNIGSKSVHWYQQKPGQAPVLVIYQDKKRPSGIPERFSGSNSGNTATLTISRAQAGDEADYYCQVWDDYIVLFGCGTKLTVLDKTHTCPPCPAPEFEGGPSVFLFPPKPKDTLMISRTPEVTCVVVAVSHEDPEVKFNWYVDGVEVHNAKTKPREEQYGSTYRVVSVLTVLHQDWLNGKEYKCKVSNKALPAPIEKTISKAKGQPREPQVYTLPPSREEMTKNQVSLSCAVKGFYPSDIAVEWESNGQPENNYKTTPPVLDSDGSFFLVSKLTVDKSRWQQGNVFSCSVMHEALHNHYTQKSLSLSPG
Kd: 528 nM
